From US20240190962A1 (IMMUNOWAKE, published 2024)
Like-named read-outs stand apart in the source and are kept apart here.

T1: human IL-2 receptor (IL-2Rα, IL-2Rβ, IL-2Rγ) (human, UniProt P01589 22-272; P14784 27-551; P31785 23-369)
T1 sequence (looked up) 1: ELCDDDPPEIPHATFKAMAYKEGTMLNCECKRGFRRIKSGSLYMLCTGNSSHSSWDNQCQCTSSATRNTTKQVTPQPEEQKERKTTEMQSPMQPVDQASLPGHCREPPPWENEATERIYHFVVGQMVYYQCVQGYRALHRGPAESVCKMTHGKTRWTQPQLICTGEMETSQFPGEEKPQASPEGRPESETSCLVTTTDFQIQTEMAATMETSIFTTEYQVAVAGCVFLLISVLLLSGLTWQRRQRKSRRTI
T1 sequence (looked up) 2: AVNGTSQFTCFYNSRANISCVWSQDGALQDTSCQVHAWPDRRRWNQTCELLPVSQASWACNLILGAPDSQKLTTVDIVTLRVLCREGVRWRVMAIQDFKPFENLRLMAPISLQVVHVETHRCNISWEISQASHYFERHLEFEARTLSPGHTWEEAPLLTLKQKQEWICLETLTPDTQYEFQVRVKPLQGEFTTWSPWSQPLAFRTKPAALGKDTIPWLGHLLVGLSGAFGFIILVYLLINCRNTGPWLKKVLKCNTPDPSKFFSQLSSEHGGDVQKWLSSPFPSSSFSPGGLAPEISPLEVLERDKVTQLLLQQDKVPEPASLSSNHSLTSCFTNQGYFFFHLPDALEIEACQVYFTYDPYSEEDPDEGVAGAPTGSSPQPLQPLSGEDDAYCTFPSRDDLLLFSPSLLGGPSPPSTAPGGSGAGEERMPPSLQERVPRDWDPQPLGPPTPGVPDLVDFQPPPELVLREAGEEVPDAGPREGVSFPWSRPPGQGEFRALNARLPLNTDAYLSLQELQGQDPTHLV
T1 sequence (looked up) 3: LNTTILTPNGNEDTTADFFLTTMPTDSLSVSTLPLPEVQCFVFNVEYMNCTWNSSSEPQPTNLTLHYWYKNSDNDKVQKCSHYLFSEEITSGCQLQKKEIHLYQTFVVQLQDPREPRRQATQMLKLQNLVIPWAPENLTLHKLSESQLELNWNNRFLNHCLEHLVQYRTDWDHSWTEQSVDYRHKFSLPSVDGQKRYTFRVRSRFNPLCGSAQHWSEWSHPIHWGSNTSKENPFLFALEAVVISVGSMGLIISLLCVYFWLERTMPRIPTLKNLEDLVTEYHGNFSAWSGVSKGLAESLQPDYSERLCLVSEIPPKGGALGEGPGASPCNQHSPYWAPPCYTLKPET


Columns and labels:
Assay in all cases: cell-based or functional assay
[1] = molecular target: T1, human IL-2 receptor (IL-2Rα, IL-2Rβ, …)
[2] = molecular target: human IL-12 receptor complex (IL-12Rβ1, IL-12Rβ2) (human, UniProt P42701 24-662; Q99665 24-862)
Chain of human IL-12 receptor complex (IL-12Rβ1, IL-12Rβ2) (Q99665 24-862, chain 2 of 2, other chains not shown): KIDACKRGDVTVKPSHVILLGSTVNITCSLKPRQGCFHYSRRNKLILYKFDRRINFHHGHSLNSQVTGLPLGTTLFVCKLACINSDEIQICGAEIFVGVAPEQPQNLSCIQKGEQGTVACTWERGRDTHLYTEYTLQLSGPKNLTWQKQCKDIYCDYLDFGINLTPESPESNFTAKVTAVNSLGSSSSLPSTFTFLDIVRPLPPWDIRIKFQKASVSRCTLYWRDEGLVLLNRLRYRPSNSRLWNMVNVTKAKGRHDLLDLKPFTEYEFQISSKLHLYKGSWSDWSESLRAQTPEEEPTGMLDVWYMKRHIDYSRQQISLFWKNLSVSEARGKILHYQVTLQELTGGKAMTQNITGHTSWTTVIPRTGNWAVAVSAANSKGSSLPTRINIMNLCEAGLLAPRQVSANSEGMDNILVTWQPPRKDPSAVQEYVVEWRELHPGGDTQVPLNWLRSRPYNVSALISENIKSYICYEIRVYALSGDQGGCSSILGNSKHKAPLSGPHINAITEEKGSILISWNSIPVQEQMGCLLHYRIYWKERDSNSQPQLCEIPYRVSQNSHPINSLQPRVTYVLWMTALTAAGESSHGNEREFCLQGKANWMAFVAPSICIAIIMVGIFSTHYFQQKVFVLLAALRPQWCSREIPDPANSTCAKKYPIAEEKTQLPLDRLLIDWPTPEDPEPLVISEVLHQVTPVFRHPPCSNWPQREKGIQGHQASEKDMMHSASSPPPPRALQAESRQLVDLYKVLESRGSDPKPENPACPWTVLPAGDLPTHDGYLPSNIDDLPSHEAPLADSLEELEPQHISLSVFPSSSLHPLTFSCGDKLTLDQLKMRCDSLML

[3] = molecular target: T1, human IL-2 receptor (IL-2Rα, IL-2Rβ, …); remark: listed apart in the source

Row | IL-2 biological activity, HEK-IL-2 [1] [%] | IL-2 biological activity, HEK-IL-2-PD-1 [1] [%] | IL-12 biological activity, HEK-IL-12 [2] [%] | IL-12 biological activity, HEK-IL-12-PD-1 [2] [%] | IL-2 biological activity, HEK-IL-2 [3] [%] | IL-2 biological activity, HEK-IL-2-PD-1 [3] [%] | Binder
1 | < 0.1 | 5 |  |  |  |  | IL-2(L18R/Q22E/R38D/K43E/E61R/Q126T)/PD-L1(mut2)-Fc (Fc fusion) chain 1: FTVTVPKDLYVVEYGSNMTIECKFPVEKQLDLAALQVYWMMEDKNIIQFVHGEEDLKVQHSSYRQRARLLKDQLSLGNAALQITDVKLQDAGVYTCLIAYKGADYKRITVKVNAPYNKINQRILVVDPVTSEHELTCQAEGYPKAEVIWTSSDHQVLSGKTTTTNSKREEKLFNVTSTLRINTTTNEIFYCTFRRLDPEENHTAELVIPELPLAHPPNERGGGGSGGGDKTHTCPPCPAPEDEGGPSVFLFPPKPKDTLMISRTPEVTCVVVDVSHEDPEVKFNWYVDGVEVHNAKTKPREEQYNSTYRVVSVLTVLHQDWLNGKEYKCKVSNKALPAPIEKTISKAKGQPREPQVYVYPPSREEMTKNQVSLTCLVKGFYPSDIAVEWESNGQPENNYKTTPPVLDEDGSFALVSKLTVDKSRWQQGNVFSCSVMHEALHNHYTQKSLSLSPGK chain 2: FTVTVPKDLYVVEYGSNMTIECKFPVEKQLDLAALQVYWMMEDKNIIQFVHGEEDLKVQHSSYRQRARLLKDQLSLGNAALQITDVKLQDAGVYTCLIAYKGADYKRITVKVNAPYNKINQRILVVDPVTSEHELTCQAEGYPKAEVIWTSSDHQVLSGKTTTTNSKREEKLFNVTSTLRINTTTNEIFYCTFRRLDPEENHTAELVIPELPLAHPPNERGGGSGAPTSSSTKKTQLQLEHLRLDLEMILNGINNYKNPKLTDMLTFEFYMPKKATELKHLQCLERELKPLEEVLNLAQSKNFHLRPRDLISNINVIVLELKGSETTFMCEYADETATIVEFLNRWITFCTSIISTLTGGGGSGGGDKTHTCPPCPAPEKKGGPSVFLFPPKPKDTLMISRTPEVTCVVVDVSHEDPEVKFNWYVDGVEVHNAKTKPREEQYNSTYRVVSVLTVLHQDWLNGKEYKCKVSNKALPAPIEKTISKAKGQPREPQVYVLPPSREEMTKNQVSLLCLVKGFYPSDIAVEWESNGQPENRYMTWPPVLDSDGSFFLYSKLTVDKSRWQQGNVFSCSVMHEALHNHYTQKSLSLSPGK
2 |  |  | < 0.2 | 24 | < 0.1 | < 0.1 | IL-12(E59A/F60A)/PD-L1(mut2)-Fc (Fc fusion) chain 1: FTVTVPKDLYVVEYGSNMTIECKFPVEKQLDLAALQVYWMMEDKNIIQFVHGEEDLKVQHSSYRQRARLLKDQLSLGNAALQITDVKLQDAGVYTCLIAYKGADYKRITVKVNAPYNKINQRILVVDPVTSEHELTCQAEGYPKAEVIWTSSDHQVLSGKTTTTNSKREEKLFNVTSTLRINTTTNEIFYCTFRRLDPEENHTAELVIPELPLAHPPNERGGGGSGGGIWELKKDVYVVELDWYPDAPGEMVVLTCDTPEEDGITWTLDQSSEVLGSGKTLTIQVKAAGDAGQYTCHKGGEVLSHSLLLLHKKEDGIWSTDILKDQKEPKNKTFLRCEAKNYSGRFTCWWLTTISTDLTFSVKSSRGSSDPQGVTCGAATLSAERVRGDNKEYEYSVECQEDSACPAAEESLPIEVMVDAVHKLKYENYTSSFFIRDIIKPDPPKNLQLKPLKNSRQVEVSWEYPDTWSTPHSYFSLTFCVQVQGKSKREKKDRVFTDKTSATVICRKNASISVRAQDRYYSSSWSEWASVPCSGGGGSGGGSGGGGSRNLPVATPDPGMFPCLHHSQNLLRAVSNMLQKARQTLEFYPCTSEEIDHEDITKDKTSTVEACLPLELTKNESCLNSRETSFITNGSCLASRKTSFMMALCLSSIYEDLKMYQVEFKTMNAKLLMDPKRQIFLDQNMLAVIDELMQALNFNSETVPQKSSLEEPDFYKTKIKLCILLHAFRIRAVTIDRVMSYLNASGGGGSGGGDKTHTCPPCPAPEDEGGPSVFLFPPKPKDTLMISRTPEVTCVVVDVSHEDPEVKFNWYVDGVEVHNAKTKPREEQYNSTYRVVSVLTVLHQDWLNGKEYKCKVSNKALPAPIEKTISKAKGQPREPQVYVYPPSREEMTKNQVSLTCLVKGFYPSDIAVEWESNGQPENNYKTTPPVLDEDGSFALVSKLTVDKSRWQQGNVFSCSVMHEALHNHYTQKSLSLSPGK chain 2: FTVTVPKDLYVVEYGSNMTIECKFPVEKQLDLAALQVYWMMEDKNIIQFVHGEEDLKVQHSSYRQRARLLKDQLSLGNAALQITDVKLQDAGVYTCLIAYKGADYKRITVKVNAPYNKINQRILVVDPVTSEHELTCQAEGYPKAEVIWTSSDHQVLSGKTTTTNSKREEKLFNVTSTLRINTTTNEIFYCTFRRLDPEENHTAELVIPELPLAHPPNERGGGGSGGGDKTHTCPPCPAPEKKGGPSVFLFPPKPKDTLMISRTPEVTCVVVDVSHEDPEVKFNWYVDGVEVHNAKTKPREEQYNSTYRVVSVLTVLHQDWLNGKEYKCKVSNKALPAPIEKTISKAKGQPREPQVYVLPPSREEMTKNQVSLLCLVKGFYPSDIAVEWESNGQPENRYMTWPPVLDSDGSFFLYSKLTVDKSRWQQGNVFSCSVMHEALHNHYTQKSLSLSPGK
3 | < 0.1 | < 0.1 |  |  |  |  | IL-2(L18R/Q22E/R38D/K43E/E61R/Q126T/S130R)/PD-L1(mut2)-Fc (Fc fusion) chain 1: FTVTVPKDLYVVEYGSNMTIECKFPVEKQLDLAALQVYWMMEDKNIIQFVHGEEDLKVQHSSYRQRARLLKDQLSLGNAALQITDVKLQDAGVYTCLIAYKGADYKRITVKVNAPYNKINQRILVVDPVTSEHELTCQAEGYPKAEVIWTSSDHQVLSGKTTTTNSKREEKLFNVTSTLRINTTTNEIFYCTFRRLDPEENHTAELVIPELPLAHPPNERGGGGSGGGDKTHTCPPCPAPEDEGGPSVFLFPPKPKDTLMISRTPEVTCVVVDVSHEDPEVKFNWYVDGVEVHNAKTKPREEQYNSTYRVVSVLTVLHQDWLNGKEYKCKVSNKALPAPIEKTISKAKGQPREPQVYVYPPSREEMTKNQVSLTCLVKGFYPSDIAVEWESNGQPENNYKTTPPVLDEDGSFALVSKLTVDKSRWQQGNVFSCSVMHEALHNHYTQKSLSLSPGK chain 2: FTVTVPKDLYVVEYGSNMTIECKFPVEKQLDLAALQVYWMMEDKNIIQFVHGEEDLKVQHSSYRQRARLLKDQLSLGNAALQITDVKLQDAGVYTCLIAYKGADYKRITVKVNAPYNKINQRILVVDPVTSEHELTCQAEGYPKAEVIWTSSDHQVLSGKTTTTNSKREEKLFNVTSTLRINTTTNEIFYCTFRRLDPEENHTAELVIPELPLAHPPNERGGGSGAPTSSSTKKTQLQLEHLRLDLEMILNGINNYKNPKLTDMLTFEFYMPKKATELKHLQCLERELKPLEEVLNLAQSKNFHLRPRDLISNINVIVLELKGSETTFMCEYADETATIVEFLNRWITFCTSIIRTLTGGGGSGGGDKTHTCPPCPAPEKKGGPSVFLFPPKPKDTLMISRTPEVTCVVVDVSHEDPEVKFNWYVDGVEVHNAKTKPREEQYNSTYRVVSVLTVLHQDWLNGKEYKCKVSNKALPAPIEKTISKAKGQPREPQVYVLPPSREEMTKNQVSLLCLVKGFYPSDIAVEWESNGQPENRYMTWPPVLDSDGSFFLYSKLTVDKSRWQQGNVFSCSVMHEALHNHYTQKSLSLSPGK
